According to patent publication US11135223B2, “Compositions and methods for inhibiting Dkk-1” (YALE UNIVERSITY, priority 2016, dated 2021):

System: CD4 T cells
Assay: CD4 T cell activation and differentiation in vitro with Dkk-1 or Wnt3a
Type: cell-based, mice
Text: FIG. 5, comprising FIG. 5A through FIG. 5E, depicts results of experiments showing Dkk-1 induces TH2 cell polarization. FIG. 5A depicts lungs harvested for immunohistochemistry of CD3 (dark brown), CD41 (blue) and isotype control antibodies of lungs from Dkk-1^d/d mice and their wildtype littermate controls challenged with HDM extract allergen. Orange arrowheads in the images indicate co-localized CD3 T cells with CD41^+ platelets. FIG. 5B depicts ELISA analysis of Dkk-1 from plasma samples from Dkk-1^d/d mice (n=5) collected 24 hours after challenge with 50 μg HDM. FIG. 5C depicts ELISA analysis of splenic CD4 T cells from 6-8 week-old C57BL/6 mice were activated with anti-CD3 and anti-CD28 antibodies (Act) with or without Dkk-1 (30 ng/ml unless indicated) for 4 days. FIG. 5D depicts flow cytometry analysis of splenic CD4 T cells from 6-8 week-old C57BL/6 mice were activated with anti-CD3 and anti-CD28 antibodies (Act) with or without Dkk-1 (30 ng/ml unless indicated) for 4 days. FIG. 5E depicts ELISA analysis of naïve CD4 T cells stimulated anti-CD3 and anti-CD28 antibodies for 96 hr with or without Dkk-1.
FIG. 6, comprising FIG. 6A through FIG. 6E, depicts results of experiments showing Dkk-1 induces TH2 cytokines in various T cell differentiation conditions. FIG. 6A depicts flow cytometry and ELISA analysis of naïve CD4 T cells were stimulated under TH1 polarization conditions for 96 hours with or without Dkk-1. FIG. 6B depicts flow cytometry and ELISA analysis of naïve CD4 T cells were stimulated under TH2 polarization conditions for 96 hours with or without Dkk-1. FIG. 6C depicts flow cytometry analysis of Foxp3, IL-17A, and IL-10 expression in splenic naïve CD4 T cells isolated and differentiated into iTreg for 5 days with 100 U/ml IL-2 and 1.5 ng/ml TGF-β with or without 30 ng/ml and 3 ng/ml of Dkk-1 treated during the culture. FIG. 6D depicts Gata-3 expression levels of splenic naïve CD4 T cells from 8 week-old C57BL/6 mice treated with Dkk-1 with varying doses of Dkk-1 (50, 30, 7.5 ng/ml) or Wnt3a (20% v/v) for 96 hours in the presence of anti-CD3 and anti-CD28 antibody stimulation. FIG. 6E depicts qPCR results of Tcf7 and Lef1 mRNA harvested from splenic naïve CD4 T cells from 8 week-old C57BL/6 mice stimulated with or without Dkk-1 (30 ng/ml) for 96 hours. All results were statistically non-significant. All experiments are a representative of two to three independent experiments. Student's t-test or one way-ANOVA analysis with Bonferonni's post-hoc test were performed. Small horizontal lines and error bars indicate the mean (±s.e.m.). ***, p<0.0001, **, p<0.005, *, p<0.05.
FIG. 8, comprising FIG. 8A through FIG. 8G, depicts results of experiments showing Dkk-1 induces IL-10 in CD4 T cells via SGK-1 and p38 MAPK. FIG. 8A depicts ELISA analysis of naïve CD4 T cell differentiated into TH2 cells with or without Dkk-1 (30 ng/ml), SGK-1 inhibitor (2 μM) or p38 inhibitor (10 μM) for 96 hours. FIG. 8B depicts flow cytometry analysis of human naïve CD4 T cells (CD4^+CD25^−CD45RA^+) transduced with SGK-1 shRNA and selected with puromycin (0.5 μg/ml) for 48 hours. The selected cells were stimulated with anti-CD3 mAb (OKT3) and anti-CD28 mAb with or without Dkk-1 for 96 hr. For the last 5 hr of culture, stimulation cocktail (PMA/Ionomycin/Brefeldin A/Monensin) was added. FIG. 8C depicts intracellular staining with antibodies recognizing phospho-S6 kinase of splenic CD4^+CD25^− cells from 6 week-old C57BL/6 mice were isolated and activated with anti-CD3 and anti-CD28 mAb (2 μg/ml) with or without Dkk-1 (25 ng/ml) for indicated time points. FIG. 8D depicts intracellular staining with antibodies recognizing phospho-4E-BP1 of splenic CD4^+CD25^− cells from 6 week-old C57BL/6 mice were isolated and activated with anti-CD3 and anti-CD28 mAb (2 μg/ml) with or without Dkk-1 (25 ng/ml) for indicated time points. […]

B1: Dkk-1: Wnt antagonist Dickkopf-1 protein, expressed in CHO cells, added to cells or injected into mice (protein, UniProt O94907 32-266, looked up)
Dickkopf-related protein 1: TLNSVLNSNAIKNLPPPLGGAAGHPGSAVSAAPGILYPGGNKYQTIDNYQPYPCAEDEECGTDEYCASPTRGGDAGVQICLACRKRRKRCMRHAMCCPGNYCKNGICVSSDQNHFRGEIEETITESFGNDHSTLDGYSRRTTLSSKMYHTKGQEGSVCLRSSDCASGLCCARHFWSKICKPVLKEGQVCTKHRRKGSHGLEIFQRCYCGEGLSCRIQKDHHQASNSSRLHTCQRH
CD4 T cell activation in vitro
  TH1 and TH17-associated cytokines (IFN-γ, IL-17A and IL-17F): not induced
TH1 polarization conditions, 96 hours
  IFN-γ expression: suppressed
TH2 cell differentiation, dose-dependent
  IL-4 expression: enhanced
iTreg differentiation with IL-2 and TGF-β, 5 days
  TGF-β-mediated Foxp3 expression: inhibiting
In vitro, Dkk-1 30 ng/ml
  Gata-3+ and c-Maf+ CD4 T cell population: increased
naïve CD4 T cells, 96 hours, similar to Wnt3a
  amount of Dkk-1 that could induce Gata-3 expression: up to 30 ng/ml
naïve CD4 T cells, Dkk-1 30 ng/ml, 96 hours, qPCR
  TCF-1 or Lef expression: did not induce
naïve CD4 T cells, non-physiologic high levels
  levels of Dkk-1 that inhibited Gata-3 expression: > 50 ng/mL
Splenic CD4+CD25- cells, Dkk-1 25 ng/ml
  phosphorylation of S6 kinase or 4E-BP-1: not altered
Total CD4 T cell activation in vitro, Dkk-1 30 ng/ml, 4 days
  IL-4, IL-10 and IL-13: induced
